Assays:
[1] = target: T1, VKLSCKASGYIFTSHRGGPEE (SEQ. ID. No. 74); experiment: competition EIA, 5 ug HBcAg peptide + 5 ug SEQ 74 peptide on coated HBcAg (competitor); OD of bound SEQ 74 peptide
T1 peptide: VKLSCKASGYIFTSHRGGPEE

[2] = target: T2, truncated recombinant form of HBeAg containing nine residues of pre-core and the 150 first residues of HBcAg (hepatitis B virus, UniProt P03146 1-150); experiment: EIA, HBeAg on solid phase, fusion peptide 20 ug/well, gG2 mAb detection
T2 construct: domain: nine residues of pre-core;range 1-150; also called hepatitis B virus e antigen
T2 sequence (P03146 1-150): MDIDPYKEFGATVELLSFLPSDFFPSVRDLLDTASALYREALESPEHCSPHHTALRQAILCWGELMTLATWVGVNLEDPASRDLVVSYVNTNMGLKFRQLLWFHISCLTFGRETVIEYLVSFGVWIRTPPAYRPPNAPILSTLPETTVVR

[3] = target: T3, Full length recombinant HBcAg (rHBcAg) encompassing residues 1-183 (hepatitis B virus, UniProt P03146 1-183); experiment: competition EIA, HBcAg coated 5 ug/ml, peptide 200 ug/ml together with mAb 4-2 (competitor); OD of bound mAb
T3 construct: range 1-183; also called hepatitis B virus core antigen
T3 sequence (P03146 whole entry, the tested form may be a part): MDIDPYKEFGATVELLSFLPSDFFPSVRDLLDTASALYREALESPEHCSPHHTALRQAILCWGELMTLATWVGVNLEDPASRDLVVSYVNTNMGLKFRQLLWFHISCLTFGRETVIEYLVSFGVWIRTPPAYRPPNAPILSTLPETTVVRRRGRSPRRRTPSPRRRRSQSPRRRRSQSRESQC

[4] = target: T3, Full length recombinant HBcAg (rHBcAg) …; experiment: competition EIA, HBcAg coated 1 ug/ml, peptide 25 ug/ml before mAb 4-2 (competitor); OD of bound mAb
[5] = target: T3, Full length recombinant HBcAg (rHBcAg) …; experiment: competition EIA, HBcAg coated 5 ug/ml, peptide 25 ug/ml together with mAb 4-2 (competitor); OD of bound mAb
[6] = target: T3, Full length recombinant HBcAg (rHBcAg) …; experiment: competition EIA, HBcAg coated 1 ug/ml, peptide 100 ug/ml before mAb 4-2 (competitor); OD of bound mAb
[7] = target: T3, Full length recombinant HBcAg (rHBcAg) …; experiment: EIA, support-bound peptide, HBcAg 0.2 ug/well
[8] = target: T3, Full length recombinant HBcAg (rHBcAg) …; experiment: competition EIA, HBcAg coated 1 ug/ml, peptide 6.25 ug/ml before mAb 4-2 (competitor); OD of bound mAb
[9] = target: T3, Full length recombinant HBcAg (rHBcAg) …; experiment: competition EIA, HBcAg coated 1 ug/ml, peptide 12.5 ug/ml before mAb 4-2 (competitor); OD of bound mAb
[10] = target: T3, Full length recombinant HBcAg (rHBcAg) …; experiment: competition EIA, HBcAg coated 5 ug/ml, peptide 50 ug/ml together with mAb 4-2 (competitor); OD of bound mAb
[11] = target: T3, Full length recombinant HBcAg (rHBcAg) …; experiment: competition EIA, HBcAg coated 1 ug/ml, peptide 200 ug/ml before mAb 4-2 (competitor); OD of bound mAb
[12] = target: T3, Full length recombinant HBcAg (rHBcAg) …; experiment: competition EIA, HBcAg coated 5 ug/ml, peptide 6.25 ug/ml together with mAb 4-2 (competitor); OD of bound mAb
[13] = target: T3, Full length recombinant HBcAg (rHBcAg) …; experiment: EIA, support-bound peptide, HBcAg 2 ug/well
[14] = target: T3, Full length recombinant HBcAg (rHBcAg) …; experiment: competition EIA, HBcAg coated 5 ug/ml, peptide 12.5 ug/ml together with mAb 4-2 (competitor); OD of bound mAb
[15] = target: T3, Full length recombinant HBcAg (rHBcAg) …; experiment: competition EIA, HBcAg coated 5 ug/ml, peptide 100 ug/ml together with mAb 4-2 (competitor); OD of bound mAb
[16] = target: T4, non-structural 3 protein (NS3) of the hepatitis C virus (HCV) (hepatitis C virus); experiment: EIA, support-bound peptide, HCV NS3 control
T4 construct: Control antigen; also called HCV NS3

[17] = target: T3, Full length recombinant HBcAg (rHBcAg) …; experiment: competition EIA, HBcAg coated 1 ug/ml, peptide 50 ug/ml before mAb 4-2 (competitor); OD of bound mAb
[18] = target: T2, truncated recombinant form of HBeAg …; experiment: EIA, support-bound peptide, HBeAg 10 ug/ml
[19] = target: T3, Full length recombinant HBcAg (rHBcAg) …; experiment: EIA, support-bound peptide, HBcAg 20 ug/ml
[20] = target: T3, Full length recombinant HBcAg (rHBcAg) …; experiment: EIA, support-bound peptide, HBcAg 0.67 ug/ml
[21] = target: T3, Full length recombinant HBcAg (rHBcAg) …; experiment: EIA, peptide coated 12.5 ug/ml, HBcAg 10 ug/ml
[22] = target: T3, Full length recombinant HBcAg (rHBcAg) …; experiment: EIA, peptide coated 50 ug/ml, HBcAg 10 ug/ml
[23] = target: T3, Full length recombinant HBcAg (rHBcAg) …; experiment: EIA, peptide coated 3.125 ug/ml, HBcAg 10 ug/ml
[24] = target: T3, Full length recombinant HBcAg (rHBcAg) …; experiment: EIA, support-bound peptide, HBcAg 5 ug/ml
[25] = target: T3, Full length recombinant HBcAg (rHBcAg) …; experiment: EIA, support-bound peptide, HBcAg 10 ug/ml
[26] = target: T3, Full length recombinant HBcAg (rHBcAg) …; experiment: EIA, support-bound peptide, HBcAg 1.25 ug/ml
[27] = target: T3, Full length recombinant HBcAg (rHBcAg) …; experiment: EIA, peptide coated 6.25 ug/ml, HBcAg 10 ug/ml
[28] = target: T3, Full length recombinant HBcAg (rHBcAg) …; experiment: EIA, peptide coated 25 ug/ml, HBcAg 10 ug/ml
[29] = target: T2, truncated recombinant form of HBeAg …; experiment: EIA, support-bound peptide, HBeAg 5 ug/ml
[30] = target: T2, truncated recombinant form of HBeAg …; experiment: EIA, support-bound peptide, HBeAg 20 ug/ml
[31] = target: T3, Full length recombinant HBcAg (rHBcAg) …; experiment: EIA, peptide coated 100 ug/ml, HBcAg 10 ug/ml
[32] = target: T2, truncated recombinant form of HBeAg …; experiment: EIA, support-bound peptide, HBeAg 2.5 ug/ml
[33] = target: T3, Full length recombinant HBcAg (rHBcAg) …; experiment: EIA, support-bound peptide, HBcAg 2.5 ug/ml
[34] = target: T2, truncated recombinant form of HBeAg …; experiment: EIA, support-bound peptide, HBeAg 0.67 ug/ml
[35] = target: T2, truncated recombinant form of HBeAg …; experiment: EIA, support-bound peptide, HBeAg 1.25 ug/ml

B1: HBcAg peptide SRDLVVSYVNTNMGLKFRQL (SEQ. ID. NO. 103, residues 81-100) (peptide)
peptide: SRDLVVSYVNTNMGLKFRQL
- OD at 490 nm [1]: 0.386 OD

B2: HBcAg peptide AYRPPNAPILSTLPETTVVR (residues 131-150, Sequence ID 108) (peptide)
peptide: AYRPPNAPILSTLPETTVVR
- OD at 490 nm [1]: 1.56 OD

B3: HBcAg peptide LWFHISCLTFGRETVIEYLV (residues 101-120, Sequence ID 105) (peptide)
peptide: LWFHISCLTFGRETVIEYLV
- OD at 490 nm [1]: 1.13 OD

B4: HBcAg peptide TNMGLKFRQLLWFHISCLTF (SEQ. ID. No. 104, residues 91-110) (peptide)
peptide: TNMGLKFRQLLWFHISCLTF
- OD at 490 nm [1]: 0.058 OD

B5: HBcAg peptide ATVELLSFLPSDFFPSVRDL (residues 11-30, Sequence ID 96) (peptide)
peptide: ATVELLSFLPSDFFPSVRDL
- OD at 490 nm [1]: 1.39 OD

B6: HBcAg peptide CWGELMTLATWVGVNLEDPA (residues 61-80, Sequence ID 101) (peptide)
peptide: CWGELMTLATWVGVNLEDPA
- OD at 490 nm [1]: 1.4 OD

B7: HBcAg peptide LDTASALYREALESPEHCSP (residues 31-50, Sequence ID 98) (peptide)
peptide: LDTASALYREALESPEHCSP
- OD at 490 nm [1]: 1.59 OD

B8: VKLSCKASGYIFTSGGPEEFE (SEQ. ID. No. 76) (peptide)
peptide: VKLSCKASGYIFTSGGPEEFE
notes: also called fusion peptide
- gG2 mAb binding (OD) [2]: 0.024 OD

B9: QQKPGQPPKLLIKYASNLES (SEQ. ID. No. 19) (peptide)
peptide: QQKPGQPPKLLIKYASNLES
- OD at 490 nm [3]: 0.925 OD
- OD at 490 nm [4]: 0.406 OD
- OD at 490 nm [5]: 1.24 OD
- OD at 490 nm [6]: 0.394 OD
- OD at 405 nm [7]: 0.064 OD
- OD at 490 nm [8]: 0.336 OD
- OD at 490 nm [9]: 0.391 OD
- OD at 490 nm [10]: 1.23 OD
- OD at 490 nm [11]: 0.368 OD
- OD at 490 nm [12]: 1.06 OD
- OD at 405 nm [13]: 0.299 OD
- OD at 490 nm [14]: 1.24 OD
- OD at 490 nm [15]: 1.11 OD
- OD at 405 nm [16]: 0.016 OD
- OD at 490 nm [17]: 0.383 OD

B10: KLSCKASGYIFTSEHRGGPEE (SEQ. ID. No. 70) (peptide)
peptide: KLSCKASGYIFTSEHRGGPEE
notes: also called fusion peptide
- gG2 mAb binding (OD) [2]: 0.022 OD

B11: HBcAg peptide WVGVNLEDPASRDLVVSYVN (residues 71-90, Sequence ID 102) (peptide)
peptide: WVGVNLEDPASRDLVVSYVN
- OD at 490 nm [1]: 1.41 OD

B12: YNMNWVKQSHGKSLEWIGNI (SEQ. ID. No. 30) (peptide)
peptide: YNMNWVKQSHGKSLEWIGNI
notes: also called Peptide # 27
- OD [18]: 0.037 OD
- OD [19]: 0.305 OD
- OD [20]: 0.02 OD
- OD at 405 nm [7]: 0.114 OD
- OD [21]: 0.181 OD
- OD [22]: 0.17 OD
- OD [23]: 0.168 OD
- OD [24]: 0.059 OD
- OD [25]: 0.115 OD
- OD at 405 nm [13]: 0.157 OD
- OD [26]: 0.026 OD
- OD [27]: 0.175 OD
- OD [28]: 0.162 OD
- OD [29]: 0.029 OD
- OD [30]: 0.04 OD
- OD [31]: 0.151 OD
- OD [32]: 0.032 OD
- OD [33]: 0.042 OD
- OD at 405 nm [16]: 0.021 OD
- OD [34]: 0.018 OD
- OD [35]: 0.021 OD

B13: HBcAg peptide SDFFPSVRDLLDTASALYRE (residues 21-40, Sequence ID 97) (peptide)
peptide: SDFFPSVRDLLDTASALYRE
- OD at 490 nm [1]: 1.58 OD

B14: KLSCKASGYIFTSHRGGPEEF (SEQ. ID. No. 71) (peptide)
peptide: KLSCKASGYIFTSHRGGPEEF
notes: also called fusion peptide
- gG2 mAb binding (OD) [2]: 0.638 OD

B15: HBcAg peptide ALESPEHCSPHHTALRQAIL (residues 41-60, Sequence ID 99) (peptide)
peptide: ALESPEHCSPHHTALRQAIL
- OD at 490 nm [1]: 1.37 OD

B16: VKLSCKASGYIFTSEHRGGPE (SEQ. ID. No. 73) (peptide)
peptide: VKLSCKASGYIFTSEHRGGPE
notes: also called fusion peptide
- gG2 mAb binding (OD) [2]: 0.029 OD

B17: KLSCKASGYIFTSRGGPEEFE (SEQ. ID. No. 72) (peptide)
peptide: KLSCKASGYIFTSRGGPEEFE
notes: also called fusion peptide
- gG2 mAb binding (OD) [2]: 0.04 OD

From patent US20020058247A1 (TRIPEP, published 2002)
